# Assay results taken from patent publication US20210030885A1, “HUMANIZED ANTI-LIV1 ANTIBODIES FOR THE TREATMENT OF CANCER” (priority 2019, published 2021).
# System: patients with metastatic breast cancer
# Assay: Phase 1 dose-escalation study, safety and tolerability of weekly LV (Day 1, 8, 15 of 3-week cycle)
# Assay type: in vivo, human
# Text: This is a phase 1, open label, dose escalation study to evaluate the safety and tolerability of ladiratuzumab vedotin (LV) in patients with metastatic breast cancer.
# Eligible patients are females at least 18 years of age who have incurable, unresectable, locally advanced or metastatic breast cancer (LA/mBC). Patients must have pathologically and radiologically confirmed hormone receptor-positive/human epidermal growth factor 2 negative (HR+/HER2−) or metastatic triple-negative breast cancer (mTNBC) with at least 1 measurable lesion per RECIST v1.1. Subjects with HR+/HER2− disease must have received no more than 1 prior line of cytotoxic chemotherapy in the locally advanced (LA)/mBC setting, either as single agent or combination therapy. Subjects with TNBC must have received 1 prior line of cytotoxic chemotherapy in the LA/mBC setting. Progression within 6 months of completion of neoadjuvant therapy is considered an LA/mBC regimen. Enrollment is open to all patients, irrespective of their LIV-1 expression level. Available and adequate archival baseline tumor sample is required. A fresh biopsy sample may be submitted in place of an archival sample if medically feasible.
# Up to […] will be enrolled (42 HR+/HER2− and 42 mTNBC) into dose escalation and dose-expansion cohorts. Patients will receive LV on Day 1, Day 8, and Day 15 in every 3-week cycle. The study will have dose escalation and expansions cohorts. Patients with HR+/HER2− and TN disease will be enrolled into separate dose-expansion cohorts for each dose level.
# Dose escalation will be conducted using the modified toxicity probability interval (mTPI) method according to Ji Y. et al. Clin Trials 7(6):653-63 (2010). Only 1 dose-escalation cohort will be open at a time. Dose-expansion cohorts may be opened at any dose level that has cleared dose-limiting toxicity (DLT) evaluation. Initially, up to approximately 10 patients will be enrolled at each dose level. DLT evaluation will only include data from the dose-escalation cohorts, but the totality of data from all patients at each dose level will be used to determine the recommended weekly LV dose.
# LV will be administered at a dose of 0.75 mg/kg to 1.75 mg/kg by intravenous infusion over the course of 30 minutes on Day 1, Day 8, and Day 15 in every 3-week cycle.
# The DLT evaluation period is the first treatment cycle (3 weeks). A DLT will be defined as any AE≥Grade 3, according to the NCI CTCAE v4.03, that is possibly, probably, or definitely related to treatment with LV, unless evidence exists that the AE has an etiology other than the investigational agent (e.g., disease progression, pre-existing medical condition, underlying disease, intercurrent illness, or concomitant medication), and/or the event has no plausible temporal relationship to administration of the investigational agent.
# Patients were enrolled in the study described in Example 19. Patients had either first or second line endocrine refractory HR+/HER2− metastatic breast cancer or second line metastatic triple negative breast cancer (TNBC). LV was administered at a dose of 1.0 mg/kg, 1.25 mg/kg, or 1.5 mg/kg by intravenous infusion over the course of 30 minutes on Day 1, Day 8, and Day 15 in every 3-week cycle as described in Example 19.
substance,measurement,setting,value
ladiratuzumab vedotin [LV],"Grade 5 ischemic colitis, subjects","1 mg/kg LV, unrelated to treatment",*Grade 5 ischemic colitis was observed in 1 subject treated with 1 mg/kg LV. This was unrelated to treatment.
same,Grade 3 or higher TEAE: Any Adverse Event,"1.0 mg/kg Q1W, n = 20",12 (60%) n (%)
same,Grade 3 or higher TEAE: Diarrhoea,"1.0 mg/kg Q1W, n = 20",1 (5%) n (%)
same,Grade 3 or higher TEAE: Fatigue,"1.0 mg/kg Q1W, n = 20",4 (20%) n (%)
same,Grade 3 or higher TEAE: Hyperglycemia,"1.0 mg/kg Q1W, n = 20",3 (15%) n (%)
same,Grade 3 or higher TEAE: Hypophosphataemia,"1.0 mg/kg Q1W, n = 20",1 (5%) n (%)
same,Grade 3 or higher TEAE: Myalgia,"1.0 mg/kg Q1W, n = 20",0 n (%)
same,Grade 3 or higher TEAE: Nausea,"1.0 mg/kg Q1W, n = 20",1 (5%) n (%)
same,Grade 3 or higher TEAE: Neutropenia,"1.0 mg/kg Q1W, n = 20",2 (10%) n (%)
same,Grade 3 or higher TEAE: Neutrophil count decreased,"1.0 mg/kg Q1W, n = 20",1 (5%) n (%)
same,Grade 3 or higher TEAE: Peripheral Sensory Neuropathy,"1.0 mg/kg Q1W, n = 20",3 (15%) n (%)
same,SAE: Anaemia,"1.0 mg/kg Q1W, n = 20",1 (5%) n (%)
same,SAE: Any Adverse Event,"1.0 mg/kg Q1W, n = 20",5 (25%) n (%)
same,SAE: Colitis,"1.0 mg/kg Q1W, n = 20",1 (5%) n (%)
same,SAE: Dehydration,"1.0 mg/kg Q1W, n = 20",1 (5%) n (%)
same,SAE: Diabetic ketoacidosis,"1.0 mg/kg Q1W, n = 20",1 (5%) n (%)
same,SAE: Dyspnoea,"1.0 mg/kg Q1W, n = 20",2 (10%) n (%)
same,SAE: Embolism,"1.0 mg/kg Q1W, n = 20",1 (5%) n (%)
same,SAE: Fatigue,"1.0 mg/kg Q1W, n = 20",1 (5%) n (%)
same,SAE: Febrile neutropenia,"1.0 mg/kg Q1W, n = 20",1 (5%) n (%)
same,SAE: Hyperglycaemia,"1.0 mg/kg Q1W, n = 20",1 (5%) n (%)
same,SAE: Pneumonia,"1.0 mg/kg Q1W, n = 20",0 n (%)
same,Grade 3 or higher TEAE: Any Adverse Event,"1.25 mg/kg Q1W, n = 18",14 (78%) n (%)
same,Grade 3 or higher TEAE: Diarrhoea,"1.25 mg/kg Q1W, n = 18",1 (6%) n (%)
same,Grade 3 or higher TEAE: Fatigue,"1.25 mg/kg Q1W, n = 18",2 (11%) n (%)
same,Grade 3 or higher TEAE: Hyperglycemia,"1.25 mg/kg Q1W, n = 18",1 (6%) n (%)
same,Grade 3 or higher TEAE: Hypophosphataemia,"1.25 mg/kg Q1W, n = 18",2 (11%) n (%)
same,Grade 3 or higher TEAE: Myalgia,"1.25 mg/kg Q1W, n = 18",1 (6%) n (%)
same,Grade 3 or higher TEAE: Nausea,"1.25 mg/kg Q1W, n = 18",1 (6%) n (%)
same,Grade 3 or higher TEAE: Neutropenia,"1.25 mg/kg Q1W, n = 18",4 (22%) n (%)
same,Grade 3 or higher TEAE: Neutrophil count decreased,"1.25 mg/kg Q1W, n = 18",1 (6%) n (%)
same,Grade 3 or higher TEAE: Peripheral Sensory Neuropathy,"1.25 mg/kg Q1W, n = 18",6 (33%) n (%)
same,SAE: Anaemia,"1.25 mg/kg Q1W, n = 18",0 n (%)
same,SAE: Any Adverse Event,"1.25 mg/kg Q1W, n = 18",5 (28%) n (%)
same,SAE: Colitis,"1.25 mg/kg Q1W, n = 18",0 n (%)
same,SAE: Dehydration,"1.25 mg/kg Q1W, n = 18",0 n (%)
same,SAE: Diabetic ketoacidosis,"1.25 mg/kg Q1W, n = 18",0 n (%)
same,SAE: Dyspnoea,"1.25 mg/kg Q1W, n = 18",1 (6%) n (%)
same,SAE: Embolism,"1.25 mg/kg Q1W, n = 18",0 n (%)
same,SAE: Fatigue,"1.25 mg/kg Q1W, n = 18",0 n (%)
same,SAE: Febrile neutropenia,"1.25 mg/kg Q1W, n = 18",0 n (%)
same,SAE: Hyperglycaemia,"1.25 mg/kg Q1W, n = 18",1 (6%) n (%)
same,SAE: Pneumonia,"1.25 mg/kg Q1W, n = 18",2 (11%) n (%)
same,Grade 3 or higher TEAE: Any Adverse Event,"1.5 mg/kg Q1W, n = 2",2 (100%) n (%)
same,Grade 3 or higher TEAE: Myalgia,"1.5 mg/kg Q1W, n = 2",1 (50%) n (%)
same,Grade 3 or higher TEAE: Neutropenia,"1.5 mg/kg Q1W, n = 2",1 (50%) n (%)
same,SAE: Anaemia,"1.5 mg/kg Q1W, n = 2",0 n (%)
same,SAE: Any Adverse Event,"1.5 mg/kg Q1W, n = 2",1 (50%) n (%)
same,SAE: Colitis,"1.5 mg/kg Q1W, n = 2",0 n (%)
same,SAE: Dehydration,"1.5 mg/kg Q1W, n = 2",0 n (%)
same,SAE: Diabetic ketoacidosis,"1.5 mg/kg Q1W, n = 2",0 n (%)
same,SAE: Dyspnoea,"1.5 mg/kg Q1W, n = 2",0 n (%)
same,SAE: Embolism,"1.5 mg/kg Q1W, n = 2",0 n (%)
same,SAE: Fatigue,"1.5 mg/kg Q1W, n = 2",0 n (%)
same,SAE: Febrile neutropenia,"1.5 mg/kg Q1W, n = 2",0 n (%)
same,SAE: Hyperglycaemia,"1.5 mg/kg Q1W, n = 2",0 n (%)
same,SAE: Pneumonia,"1.5 mg/kg Q1W, n = 2",0 n (%)
same,"incidence of a variety of adverse events, Q1W vs Q3W",3.0-4.5 mg/kg per 3 weeks on Q1W vs. 2.5 mg/kg on Q3W,lower incidence
same,dose limiting toxicities,"Dose level 0 (1 mg/kg Q1W), +1 (1.25 mg/kg Q1W), +2 (1.5 mg/kg Q1W)",no dose limiting toxicities observed
same,Adverse event incidence: Abdominal Pain,"Q1W, N = 40",7 (18%)
same,Adverse event incidence: Alopecia,"Q1W, N = 40",10 (25%)
same,Adverse event incidence: Constipation,"Q1W, N = 40",10 (25%)
same,Adverse event incidence: Decreased Appetite,"Q1W, N = 40",11 (28%)
same,Adverse event incidence: Diarrhea,"Q1W, N = 40",11 (28%)
same,Adverse event incidence: Fatigue,"Q1W, N = 40",18 (45%)
same,Adverse event incidence: Hypokalemia,"Q1W, N = 40",4 (10%)
same,Adverse event incidence: Nausea,"Q1W, N = 40",14 (35%)
same,Adverse event incidence: Neutropenia,"Q1W, N = 40",10 (25%)
same,Adverse event incidence: Peripheral Sensory Neuropathy,"Q1W, N = 40",9 (23%)
same,Adverse event incidence: Vomiting,"Q1W, N = 40",8 (20%)
same,Grade 3 or higher TEAE: Any Adverse Event,"Total, all Q1W doses, n = 40",28 (70%) n (%)
same,Grade 3 or higher TEAE: Diarrhoea,"Total, all Q1W doses, n = 40",2 (5%) n (%)
same,Grade 3 or higher TEAE: Fatigue,"Total, all Q1W doses, n = 40",6 (15%) n (%)
same,Grade 3 or higher TEAE: Hyperglycemia,"Total, all Q1W doses, n = 40",4 (10%) n (%)
same,Grade 3 or higher TEAE: Hypophosphataemia,"Total, all Q1W doses, n = 40",3 (8%) n (%)
same,Grade 3 or higher TEAE: Myalgia,"Total, all Q1W doses, n = 40",2 (5%) n (%)
same,Grade 3 or higher TEAE: Nausea,"Total, all Q1W doses, n = 40",2 (5%) n (%)
same,Grade 3 or higher TEAE: Neutropenia,"Total, all Q1W doses, n = 40",7 (18%) n (%)
same,Grade 3 or higher TEAE: Neutrophil count decreased,"Total, all Q1W doses, n = 40",2 (5%) n (%)
same,Grade 3 or higher TEAE: Peripheral Sensory Neuropathy,"Total, all Q1W doses, n = 40",9 (23%) n (%)
same,SAE: Anaemia,"Total, all Q1W doses, n = 40",1 (3%) n (%)
same,SAE: Any Adverse Event,"Total, all Q1W doses, n = 40",11 (28%) n (%)
same,SAE: Colitis,"Total, all Q1W doses, n = 40",1 (3%) n (%)
same,SAE: Dehydration,"Total, all Q1W doses, n = 40",1 (3%) n (%)
same,SAE: Diabetic ketoacidosis,"Total, all Q1W doses, n = 40",1 (3%) n (%)
same,SAE: Dyspnoea,"Total, all Q1W doses, n = 40",3 (8%) n (%)
same,SAE: Embolism,"Total, all Q1W doses, n = 40",1 (3%) n (%)
same,SAE: Fatigue,"Total, all Q1W doses, n = 40",1 (3%) n (%)
same,SAE: Febrile neutropenia,"Total, all Q1W doses, n = 40",1 (3%) n (%)
same,SAE: Hyperglycaemia,"Total, all Q1W doses, n = 40",2 (5%) n (%)
same,SAE: Pneumonia,"Total, all Q1W doses, n = 40",2 (5.%) n (%)
